Measured values taken from patent US20250250357A1 (NANJING ZAIMING PHARMACEUTICAL, published 2025).
Positions count from the first letter of the chain named. Numbers in names are those of the source.

T1: monkey MSLN on HEK293T-monkey MSLN recombinant cells (monkey)
T1 construct: Full-length precursor as transfected; processing on the cell is not described; also called HEK293-monkey MSLN
T1 chain: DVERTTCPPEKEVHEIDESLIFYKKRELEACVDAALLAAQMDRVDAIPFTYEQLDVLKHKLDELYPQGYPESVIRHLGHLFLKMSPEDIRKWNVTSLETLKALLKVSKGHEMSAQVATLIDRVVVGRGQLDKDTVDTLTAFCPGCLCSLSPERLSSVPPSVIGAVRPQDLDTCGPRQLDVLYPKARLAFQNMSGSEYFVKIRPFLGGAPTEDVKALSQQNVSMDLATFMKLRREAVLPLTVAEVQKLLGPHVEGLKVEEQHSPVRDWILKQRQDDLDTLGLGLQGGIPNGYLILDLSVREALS

T2: monkey MSLN full-length protein (NCBI: XP_028696439.1) expressed on HEK293T-monkey MSLN cells (monkey)
T2 construct: Whole encoded precursor
T2 chain: T1 chain

B1: S009-F8-9.16 (antibody, human IgG1, kappa, V domains shown)
VH: EVHLQQSGPVLVKPGASVKMSCKASGYTFTDYFMNWVKQSHGKSLEWIGVINPHNGYVNYNQKFQGRATLTVDKSSSTVYMELNSLTSEDSAVYHCARSAESAWFAYWGQRTLVTVSA
VL: DVLMTQTPLSLPVSLGDQVSISCRSSQSIVHVKGNTYLEWYLQKPGQSPELLIYKVSNRFSGVPDRFSGGGSGTDFTLKISRVEPEDLGVYYCFQGSHLPYTFGGGTKLEIKR
notes: human-murine chimeric antibody, human IgG1/kappa constant regions
B2: S009-F7.69.8 (antibody, human IgG1, kappa, V domains shown)
VH: EVHLQQSGPELVKPGASVRIPCKASGYTFTDYNMDWVKQSHGKSLEWIGDINPDNGGTIYTQKFKGKATLTVDKSSSTAYMELRSLTSEDTAVYYCARRLHYYGSSGLDYWGQGTTLTVSS
VL: DIQMTQSPASLSAYVGETVTITCRASGNIHNYLAWYQQKQGKSPQLLVYNAKTLADGVPSRFSGSGSGTQYSLKINSLQPEDFGSYYCQHFWSTVWTFGGGTKLEIKR
notes: as for B1
B3: F7.44.20-H3 (scFv, not shown: small tags and cut ends)
scFv: EVQLVQSGAEVKKPGASVKVSCKASGYTFTDYNMDWVRQAPGQGLEWMGDINPSTGGTIYNQKFNGRVTMTEDKSTSTVYMELSSLRSEDTAVYYCARRRIGTGYFDVWGQGTTVTVSSGGGGSGGGGSGGGGSEIVLTQSPATLSLSPGERATLSCSASSSVISSYLSWYQQKPGQSPRLLIYRTSNLASGIPARFSGSGSGTDYTLTISSLEPEDFAVYYCHQWSSFPYTFGGGTKVEIK
notes: also called S009-F7.44.20 humanized antibody VH1 + VL3
B4: F7.44.20-H15 (scFv, not shown: small tags and cut ends)
scFv: B3 scFv with N65S, T76A
notes: also called S009-F7.44.20 humanized antibody VH2a + VL3
B5: F7.44.20-H12 (scFv, not shown: small tags and cut ends)
scFv: B3 scFv with T76A, Q177S
notes: also called S009-F7.44.20 humanized antibody VH2 + VL4
B6: F7.44.20-H11 (scFv, not shown: small tags and cut ends)
scFv: B3 scFv with T76A
notes: also called S009-F7.44.20 humanized antibody VH2 + VL3
B7: F7.44.20-H16 (scFv, not shown: small tags and cut ends)
scFv: B3 scFv with N65S, T76A, Q177S
notes: also called S009-F7.44.20 humanized antibody VH2a + VL4
B8: F7.44.20-H4 (scFv, not shown: small tags and cut ends)
scFv: B3 scFv with Q177S
notes: also called S009-F7.44.20 humanized antibody VH1 + VL4
B9: F7.44.20-H8 (scFv, not shown: small tags and cut ends)
scFv: B3 scFv with N65Q, Q177S
notes: also called S009-F7.44.20 humanized antibody VH1a + VL4
B10: F7.44.20-H7 (scFv, not shown: small tags and cut ends)
scFv: B3 scFv with N65Q
notes: also called S009-F7.44.20 humanized antibody VH1a + VL3
B11: Tab110 (scFv, not shown: small tags and cut ends)
scFv: QQQLEESGGGLVKPEGSLTLTCKASGFDLGFYFYACWVRQAPGKGLEWIACIYTAGSGSTYYASWAKGRFTISKASSTTVTLQMTSLAAADTATYFCARSTANTRSTYYLNLWGPGTLVTVSSGGGGSGGGGSGGGGSDVVMTQTPASVSEPVGGTVTIKCQASQRISSYLSWYQQKPGQRPKLLIFGASTLASGVPSRFKGSGSGTEYTLTISDLECADAATYYCQSYAYFDSNNWHAFGGGTEVVV
notes: also called YP218 VH-(G4S)3-VL-his antibody; positive control
B12: F7.44.20-H1 (scFv, not shown: small tags and cut ends)
scFv: EVQLVQSGAEVKKPGASVKVSCKASGYTFTDYNMDWVRQAPGQGLEWMGDINPSTGGTIYNQKFNGRVTMTEDKSTSTVYMELSSLRSEDTAVYYCARRRIGTGYFDVWGQGTTVTVSSGGGGSGGGGSGGGGSEIVLTQSPDFQSVTPKEKVTITCSASSSVISSYLSWYQQKPDQSPKLLIYRTSNLASGVPSRFSGSGSGTDFTLTINSLEAEDAATYYCHQWSSFPYTFGGGTKVEIK
notes: also called S009-F7.44.20 humanized antibody VH1 + VL1
B13: F7.44.20-H5 (scFv, not shown: small tags and cut ends)
scFv: B12 scFv with N65Q
notes: also called S009-F7.44.20 humanized antibody VH1a + VL1
B14: F7.44.20-H14 (scFv, not shown: small tags and cut ends)
scFv: B12 scFv with N65S, T76A, F206Y
notes: also called S009-F7.44.20 humanized antibody VH2a + VL2
B15: F7.44.20-H13 (scFv, not shown: small tags and cut ends)
scFv: B12 scFv with N65S, T76A
notes: also called S009-F7.44.20 humanized antibody VH2a + VL1
B16: F7.44.20-H2 (scFv, not shown: small tags and cut ends)
scFv: B12 scFv with F206Y
notes: also called S009-F7.44.20 humanized antibody VH1 + VL2
B17: F7.44.20-H9 (scFv, not shown: small tags and cut ends)
scFv: B12 scFv with T76A
notes: also called S009-F7.44.20 humanized antibody VH2 + VL1
B18: F7.44.20-H6 (scFv, not shown: small tags and cut ends)
scFv: B12 scFv with N65Q, F206Y
notes: also called S009-F7.44.20 humanized antibody VH1a + VL2
B19: F7.44.20-H10 (scFv, not shown: small tags and cut ends)
scFv: B12 scFv with T76A, F206Y
notes: also called S009-F7.44.20 humanized antibody VH2 + VL2

The binders below were run against T3, human MSLN protein endogenously expressed on OVCAR3 tumor cells (human, UniProt Q13421 296-598) (assay: FACS on OVCAR3 cells).
T3 construct: whole, on cells; endogenous expression on a tumor cell line; also called human mesothelin
T3 sequence (Q13421 other isoform, or with tags, fused parts or gaps): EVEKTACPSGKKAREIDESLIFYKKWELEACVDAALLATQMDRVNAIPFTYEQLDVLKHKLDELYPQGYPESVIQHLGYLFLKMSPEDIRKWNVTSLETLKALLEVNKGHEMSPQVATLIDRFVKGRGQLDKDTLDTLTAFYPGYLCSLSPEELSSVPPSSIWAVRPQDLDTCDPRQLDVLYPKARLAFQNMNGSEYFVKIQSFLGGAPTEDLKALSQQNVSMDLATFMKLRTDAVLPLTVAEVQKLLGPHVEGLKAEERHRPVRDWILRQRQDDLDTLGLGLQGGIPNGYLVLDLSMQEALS

Binder	EC50 [nM]	Maximum mean fluorescence intensity
B1	0.86	5380

These binders were tested against T4, human MSLN protein endogenously expressed on OVCAR3 tumor cells (human, UniProt Q13421 296-598) (assay: FACS on OVCAR3 cells).
T4 construct: whole, on cells; Endogenous target on OVCAR3 cells; kept apart from the recombinant full-length construct; also called mesothelin

Binder	EC50 [nM]	Maximum mean fluorescence intensity
B2	0.36	16600

These binders were tested against T5, human MSLN-R3 on HEK293T-hMSLN-R3 recombinant cells (human, UniProt Q13421 487-606) (assay: FACS, HEK293T-hMSLN-R3 cells).
T5 construct: the C-terminal limit is uncertain; also called human MSLN-R3 membrane protein
T5 sequence (Q13421 495-614): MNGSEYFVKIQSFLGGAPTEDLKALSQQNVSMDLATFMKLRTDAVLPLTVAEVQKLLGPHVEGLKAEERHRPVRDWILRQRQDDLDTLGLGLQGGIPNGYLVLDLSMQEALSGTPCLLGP

Binder	EC50 [nM]	Maximum_MFI [MFI]
B3	1.57	1490
B4	0.91	1500
B5	2.88	1410
B6	1.14	1680
B7	2.23	1440
B8	2.64	1470
B9	1.95	1650
B10	2.12	1510
B11	–	461
B12	1.72	1750
B13	0.94	1700
B14	1.52	1440
B15	0.63	1600
B16	1.71	1690
B17	1.67	1560
B18	3.44	1540
B19	0.88	1470

These binders were tested against T6, human MSLN-hFc recombinant protein (human, UniProt Q13421 296-580) (assay: SPR (Biacore 8K), MSLN-hFc captured, antibody injected).
T6 construct: Captured by an anti-human IgG antibody on the chip; also called human MSLN protein; Acro MSN-H5253
T6 sequence (Q13421 other isoform, or with tags, fused parts or gaps): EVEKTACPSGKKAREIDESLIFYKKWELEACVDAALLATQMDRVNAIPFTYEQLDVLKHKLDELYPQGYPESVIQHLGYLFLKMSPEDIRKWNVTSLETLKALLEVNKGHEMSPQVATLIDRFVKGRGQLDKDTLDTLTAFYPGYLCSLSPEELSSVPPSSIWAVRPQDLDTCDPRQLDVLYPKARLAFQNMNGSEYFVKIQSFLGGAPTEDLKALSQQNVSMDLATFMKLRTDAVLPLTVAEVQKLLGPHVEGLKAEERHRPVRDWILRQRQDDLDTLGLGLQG

Binder	Kd [nM]	koff [s⁻¹]	kon [M⁻¹ s⁻¹]
B7	1.85	0.000679	367000
B13	0.709	0.000313	442000
B17	0.464	0.000208	449000

Each binder was assayed against T7, human MSLN-R3 protein expressed on HEK293T cells (HEK293T-hMSLN-R3) (human, UniProt Q13421 487-606) (assay: FACS on HEK293T-hMSLN-R3 cells;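 also: chimeric antibodies incubated with cells on ice for 2 h, binding read by flow cytometry as mean fluorescence intensity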).
T7 construct: C-terminal limit uncertain
T7 sequence (Q13421 495-614): as the sequence (Q13421 495-614) above

Binder	EC50 [nM]	Maximum mean fluorescence intensity
B1	0.53	128000

Molecular target: T5, human MSLN-R3 on HEK293T-hMSLN-R3 …
Assay: FACS, HEK293T-hMSLN-R3 cells
Remark: another data set of the same source

Binder	Maximum_MFI [MFI]
B11	461

The binders below were run against T8, human MSLN on OVCAR3 tumor cells (human, UniProt Q13421 296-598) (assay: FACS, OVCAR3 cells).
T8 construct: whole, on cells; also called human MSLN protein

Binder	EC50 [nM]	Maximum_MFI [MFI]
B3	0.69	1810
B4	1.77	1930
B5	1.5	2100
B6	0.61	1950
B7	1.66	1650
B8	1.26	1680
B9	1.04	1880
B10	1.11	1840
B12	0.4	1820
B13	1	1960
B14	1.83	2140
B15	1.33	2150
B16	0.99	1820
B17	1.61	2220
B18	1.6	1830
B19	1.21	2320

Molecular target: T1, monkey MSLN on HEK293T-monkey MSLN …
Assay: FACS, HEK293T-monkey MSLN cells

Binder	EC50 [nM]	Maximum_MFI [MFI]
B3	7.34	7000
B4	4.47	8090
B5	10.3	6670
B6	3.74	7210
B7	12.2	5980
B8	10.4	6450
B9	7.09	6320
B10	9.24	6130
B12	6.05	6550
B13	4.55	7780
B14	7.37	8130
B15	2.35	9320
B16	5.5	6950
B17	8.05	7460
B18	15	6020
B19	4.25	9020

Each binder was assayed against T9, human MSLN-R3 protein (Met487-Ser606 of NCBI AAH09272.1) expressed on HEK293T-hMSLN-R3 cells (human, UniProt Q13421 487-606) (assay: FACS on HEK293T-hMSLN-R3 cells;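 also: flow cytometry binding of test chimeric antibodies to cells after 2 h incubation on ice, with values derived from the mean fluorescence intensity of the cells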).
T9 construct: also called Region3
T9 sequence (Q13421 495-614): as above

Binder	EC50 [nM]	Maximum mean fluorescence intensity
B2	0.14	6590

Molecular target: T2, monkey MSLN full-length protein (NCBI: …)
Assay: FACS on HEK293T-monkey MSLN cells;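 also: flow cytometry binding of chimeric antibodies to the cells, with a 2 h incubation on ice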

Binder	EC50 [nM]	Maximum mean fluorescence intensity
B2	12.5	9230
